Positions count from the first letter of the chain named. Names may count otherwise. One block for each molecule: values may come before it.
Assays:
[1] = system: JNK; assay: ASK1-induced JNK activation in BAEC, in vitro kinase assay with GST-c-Jun; type: cell-based, Bovine; conditions: co-expression with ASK1 1:1, 24 h post-transfection
Description: J Immunol. 159:3508-18 (1997)) using GST-MKK4 and GST-c-Jun (1-80) fusion protein as a substrate, respectively. Briefly, total 400 μg cell lysates were immunoprecipitated with 5 μg of antibody against ASK1 or JNK1 (Santa Cruz). The immunoprecipitates were mixed with 10 μg GST-MKK4 or GST-c-Jun (1-80) suspended in the kinase buffer (20 mM Hepes, pH 7.6, 20 mM MgCl2, 25 mM β-glycerophosphate, 100 μM sodium orthovanadate, 2 mM DTT, 20 μM ATP) containing 1 μl (10 μCi) of [γ-32P] ATP. The kinase assay was performed at 25° C. for 30 min. The reaction was terminated by the addition of Laemmli sample buffer and the phosphorylated GST-MKK4 or GST-c-Jun (1-80) was visualized by autoradiography.
Trx-C32S and Trx-C35S (but not Trx-WT) inhibits ASK1-mediated EC apoptosis induced by TNF. To determine the biological consequence of Trx-induced ASK1 ubiquitination/degradation, the effects of Trx on ASK1-induced apoptosis were examined. ASK1-induced activation of JNK and caspase 3 has been implicated in cell d e a t h (Hatai T et al. Execution of apoptosis signal-regulating kinase 1 (ASK1) induced apoptosis by the mitochondria-dependent caspase activation. J Biol Chem.275:26576-81 (2000); Tournier C et al. Requirement of JNK for stress-induced activation of the cytochrome c- mediated death pathway. Science. 288:870-4 (2000)). First, the effects of Trx on JNK activation induced by ASK1 were examined. BAEC were co-transfected with ASK1 and Trx expression constructs as indicated, and JNK activity was measured by an in vitro kinase assay using GST-c-Jun as a substrate. […] Co-expression of Trx-WT, Trx-C32S and Trx-C35S (but not Trx-CS) inhibited ASK1-induced JNK activity (FIG. 6A top panel). Western blot with anti-Flag indicated equal amounts of Trx proteins were expressed (FIG. 6A bottom panel). Similar results were obtained in human EC (HUVEC).

[2] = system: BAEC; assay: GFP killing assay, TNF+CHX-induced EC death; type: cell-based, Bovine; conditions: TNF 10 ng/ml plus CHX 10 μg/ml for 24 h; vector control 25% survival
Description: Trx inhibits ASK1-induced JNK activation and caspase 3 activity. BAEC were co-transfected with ASK1 and Trx constructs in 1:1 ratio as indicated: control vector alone (Ctrl), ASK1 with VC, Trx-WT, Trx-CS, Trx-C32S or Trx-C35S. 24 h post-transfection, cell lysates were used to examine JNK and caspase 3 activity. […] JNK activity was measured by an in vitro kinase assay GST-c-Jun as a substrate. Trx expression was determined by Western blot anti-Flag. […] Caspase 3 activity was measured by Sigma's Caspase 3 Fluorometric Assay Kit in the absence or presence of caspase 3 inhibitor Ac-DEVD-CHO. Assay was performed as duplicates. Caspase 3 activities were normalized with the Ctrl group (as zero). Data are presented from mean of two independent experiments. […] 48 h after transfection, GFP-positive cells were counted as survival cells. […] GFP-positive cells were counted as survival cells. […]
Quantitation of cell killing: Cell killing assay was performed as described previously with a modification (Slowik M R et al. Evidence that tumor necrosis factor triggers apoptosis in human endothelial cells by interleukin-1-converting enzyme-like protease- dependent and -independent pathways. Lab Invest. 77:257-67 (1997)). […] GFP-positive cells were visualized under a fluorescence microscope and counted as number of survival cells. […]

ASK1-induced JNK activity [1]: inhibited
B1: thioredoxin (protein)
chain: MVKQIESKTAFQEALDAAGDKLVVVDFSATWCGPCKMIKPFFHSLSEKYSNVIFLEVDVDDCQDVASECEVKCMPTFQFFKKGQKVGEFSGANKEKLEATINELV
modifications: Flag tag or GST fusion
notes: Flag-tagged or GST fusion

ASK1-induced JNK activity [1]: inhibited
B2: Trx-C35S: C35S single mutant of Trx at the catalytic site, SEQ ID NO:3 (protein)
chain: B1 chain with C35S
survival after TNF+CHX (GFP-positive cells, Ctrl as 100%) [2]: 100±12%

ASK1-induced JNK activity [1]: inhibited
B3: Trx-C32S: C32S single mutant of Trx at the catalytic site, SEQ ID NO:2 (protein)
chain: B1 chain with C32S
